Measured values from patent US20040248211A1, “ICAM-related protein” (priority 1992, published 2004).

Columns and labels:
[1] = tested on: cell lines which express ICAM-R; test: Homotypic aggregation assay, cell line panel; format: cell-based, human; conditions: presence and absence of PMA
Experimental: In order to determine whether ICAM-R is involved in homotypic cell adhesion, aggregation assays were performed with a panel of cell lines which express ICAM-R including T lymphoblastoid cell lines (SupT1, CEM, Molt 4, Hut 78, Jurkat, SKW3), B lymphoblastoid cells lines (Jijoye, Raji), monocytic cell lines (U937, HL60), a myelogenous cell line (KG-1) and the erythroleukemia cell line K562. To determine the function of the ICAM-R molecule, the cells were incubated with various antibodies before aggregation was assayed. Anti-ICAM-R supernatants produced by hybridomas ICR-2.1, ICR-1.1, ICR-4.2, and ICR-3.1 were used as well as antibody preparations known to block aggregation through a β2 integrin pathway: TS1/18 (ATCC HB203) specific for the CD18 molecule, the β-subunit of LFA-1; TS1/22 (ATCC HB202) specific for the CD11a molecule, the α-chain of LFA-1; and LM2/1 (ATCC HB204) specific for the CD11b molecule, the α-subunit of MAC-1. Purified anti-ICAM-1 antibody and hybridoma supernatant directed against the a-chain of the VLA-4 molecule (hybridoma clone 163H, Michael Longenecker, Alberta, Canada) were used as controls.
Aggregation assays were done in duplicate, with and without addition of PMA (50 ng/ml). 3×10^5 cells in RPMI 1640 medium with 10% fetal calf serum were added in a flat-bottomed 96-well microtest plate. […]

PBMC [2] = test: PBMC activation markers on immobilized antibody; format: cell-based, human; conditions: immobilized antibody 10 μg/well; no other stimuli
Experimental: Anti-ICAM-R monoclonal antibodies ICR-1.1 and ICR-4.2 were each tested for the ability to induce PMBC activation in the absence of other inducing stimuli. Monoclonal antibodies ICR-1.1 or ICR-4.2 (or control monoclonal antibodies) were added (10 μg/well in PBS) to individual wells of a 96-well flat bottom tissue culture plate and incubated for 3 hours at 37° C. in a 5% CO2 incubator. The plates were washed 3 times with sterile PBS to remove unbound antibody and freshly isolated PBMC were immediately added to a final concentration of 2×10^5 cells/well in a volume of 200 μl media. The plates were then incubated for either 1 or 3 days at which time the cells cultured in the presence of different antibodies were removed, washed as described above in PBS containing 0.01% sodium azide and 1% BSA (FACS buffer) and stained with either FITC (Becton Dickinson)-conjugated negative control antibodies or a panel of FITC-conjugated anti-CD69, anti-transferrin receptor and anti-IL-2 receptor antibodies. Results were obtained by FACScan analysis. […] However, while increased expression of these lymphocyte activation markers was observed after 1 and 3 days this increased expression was unaccompanied by increased cell size.

PBMC [3] = test: PBMC proliferation with or without rIL-2; format: cell-based, human; conditions: immobilized antibody 10 μg/well; with or without rIL-2 10 units/ml; 3 days
Experimental: Ten μg of ICAM-R monoclonal antibodies ICR-1.1 or ICR-4.2 (or control IgG1 and IgG2) antibodies) in PBS were added per well of 96-well flat bottom tissue culture plates and the plates were incubated for 3-4 hours at 37° C. in a 5% CO2 incubator. After incubation, each well was rinsed 3 times with PBS and freshly obtained PBL were added to a final concentration of 2×10^5 cells/well in a volume of 200 μl. Ten units/ml human recombinant IL-2 (Genzyme, Boston, Mass.) was then added to selected wells. The plates were incubated for a total of 3 days at 37° C. in a 5% CO2 incubator. ^3H-thymidine incorporation by the PMBC was determined as described earlier in this example. […] Positive controls for lymphocyte proliferation included immobilized anti-CD3 and anti-LFA-1 (60.3) monclonal antibodies.

PBMC [4] = test: Anti-CD3 stimulated PBMC aggregation; format: cell-based, human; conditions: immobilized antibody
human PBL = test: SEA-induced aggregation of PBL; format: cell-based; conditions: versus plate-bound B-H9
resting lymphocytes = test: Restoration of anti-CD3 proliferation by IL-2; format: cell-based; conditions: human rIL-2 30 U/ml
Experimental: Human PBL were fractionated and incubated on immobiized monoclonal antibodies as described in Section I above. The cells were collected, washed and replated on anti-CD3 either in the presence or absence of human rIL-2 at 30 U/ml.

B1: ICR-1.1: anti-ICAM-R monoclonal antibody, IgG2a, domain 1, ATCC HB 11053 (antibody, V domains shown)
VH: QVQLQQSGAELAKPGASVKMSCKASGYTFTVYWMHWVKQRPGQGLEWIGYINPNTDYTEYNQRFQDKATLTADKSSSTAYMQLSSLTSEDSAVYYCARWGGNSYGLDYWGQGTSVTVSS
VL: QIVLTQSPALMSASPGEKVTMTCSASSSVSYIYWYQQKPRSSPKPWIYLTSNLASGVPARFSGSGSGASYSLTISIMEAEDAATYYCQQWKSIPLTFGAGTKLELK
stimulation of homotypic cell-cell aggregation [1]: stimulated homotypic cell-cell aggregation | PBMC activation marker expression after 1 day (PBMC [2]): Expression of CD69 and the transferrin receptor but not the IL-2 receptor increased | PBMC activation marker expression after 3 days (PBMC [2]): increased levels of cell surface expression of both the transferrin receptor and IL-2 receptor but not CD69 | PBMC proliferation (3H-thymidine) (PBMC [3]): did not induce PMBC proliferation even in the presence of rIL2 | inhibition of anti-CD3 stimulated aggregation (PBMC [4]): ~100% | SEA-induced cell aggregation, plate-bound antibody (human PBL): almost complete | proliferative response to anti-CD3 after prepulse, with added IL-2 (resting lymphocytes): completely restored proliferative responses
